Tested on: Escherichia coli TOP10
Assay: shrunken log2 fold change of peptide-encoding DNA abundance (4.5 h post-induction vs induction); higher = less antimicrobial activity (less host growth inhibition)
Conditions: time post-induction: 4.5 h; library: site-saturation at positions 5, 18, 19, 20
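Also: peptides expressed intracellularly from a pBAD plasmid library in pooled LB shake-flask culture, induced with 0.3% L-arabinose, DNA abundance read by NGS, three biological replicates, DESeq2 with apeglm shrinkage.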

Sequence	shrunken log2 fold change
RRIRRRPPRLPRPRPRPKFYPRP	-0.102
RRIRWRPPRLPRPRPRPVERPRP	0.398
RRIRWRPPRLPRPRPRPGTLPRP	-0.0473
RRIRQRPPRLPRPRPRPRMIPRP	-0.227
RRIRTRPPRLPRPRPRPSCYPRP	-0.654
RRIRGRPPRLPRPRPRPVKGPRP	0.276
RRIRHRPPRLPRPRPRPCIAPRP	-0.46
RRIRQRPPRLPRPRPRPKHHPRP	-0.391
RRIRPRPPRLPRPRPRPPMLPRP	0.18
RRIRKRPPRLPRPRPRPMWPPRP	-0.00167
RRIRNRPPRLPRPRPRPANIPRP	-0.0793
RRIRIRPPRLPRPRPRPESKPRP	-0.208
RRIRHRPPRLPRPRPRPTSLPRP	-0.135
RRIRSRPPRLPRPRPRPVNDPRP	-0.389
RRIRGRPPRLPRPRPRPCWLPRP	-0.0298
RRIRGRPPRLPRPRPRPDRYPRP	0.152
RRIRHRPPRLPRPRPRPLILPRP	0.0886
RRIRVRPPRLPRPRPRPVWLPRP	0.276
RRIRGRPPRLPRPRPRPRRSPRP	0.767
RRIRLRPPRLPRPRPRPKFRPRP	-0.0412
RRIRSRPPRLPRPRPRPWWYPRP	-0.0611
RRIRWRPPRLPRPRPRPQIHPRP	-0.681
RRIRFRPPRLPRPRPRPTIGPRP	-0.0631
RRIRLRPPRLPRPRPRPIIDPRP	-0.256
RRIRDRPPRLPRPRPRPFSWPRP	0.198

Sequence	shrunken log2 fold change
RRIRLRPPRLPRPRPRPPLVPRP	0.402
RRIRERPPRLPRPRPRPLCRPRP	-0.0964
RRIRTRPPRLPRPRPRPFMQPRP	-0.0497
RRIRNRPPRLPRPRPRPDGVPRP	0.221
RRIRSRPPRLPRPRPRPSACPRP	-0.0945
RRIRNRPPRLPRPRPRPHSMPRP	-0.027
RRIRERPPRLPRPRPRPLYCPRP	-0.444
RRIRWRPPRLPRPRPRPENIPRP	-0.148
RRIRKRPPRLPRPRPRPNICPRP	-0.0826
RRIRKRPPRLPRPRPRPTMHPRP	0.455
RRIRNRPPRLPRPRPRPQIHPRP	-0.364
RRIRNRPPRLPRPRPRPEMMPRP	0.317
RRIRDRPPRLPRPRPRPPWAPRP	0.311
RRIRARPPRLPRPRPRPMNFPRP	-0.0564
RRIRLRPPRLPRPRPRPGTRPRP	0.309
RRIRERPPRLPRPRPRPAKIPRP	0.039
RRIRCRPPRLPRPRPRPVHIPRP	-0.831
RRIRYRPPRLPRPRPRPPRNPRP	0.142
RRIRYRPPRLPRPRPRPWRRPRP	-0.104
RRIRPRPPRLPRPRPRPEGKPRP	-0.124
RRIRWRPPRLPRPRPRPAQRPRP	0.418
RRIRPRPPRLPRPRPRPWLNPRP	-0.541
RRIRWRPPRLPRPRPRPYGQPRP	0.051
RRIRGRPPRLPRPRPRPHVKPRP	-0.0605
RRIRHRPPRLPRPRPRPTYYPRP	-0.0104

Sequence	shrunken log2 fold change
RRIRQRPPRLPRPRPRPDYSPRP	-0.0839
RRIRERPPRLPRPRPRPQRVPRP	-0.167
RRIRTRPPRLPRPRPRPLRSPRP	0.387
RRIRCRPPRLPRPRPRPLTTPRP	0.729
RRIRDRPPRLPRPRPRPEPCPRP	0.064
RRIRQRPPRLPRPRPRPFSYPRP	-0.0227
RRIRERPPRLPRPRPRPPDAPRP	0.142
RRIRMRPPRLPRPRPRPKGFPRP	0.00502
RRIRCRPPRLPRPRPRPFKAPRP	-0.713
RRIRMRPPRLPRPRPRPPTMPRP	0.271
RRIRVRPPRLPRPRPRPHPAPRP	0.296
RRIRSRPPRLPRPRPRPANFPRP	0.0977
RRIRLRPPRLPRPRPRPDRNPRP	0.0573
RRIRMRPPRLPRPRPRPFVKPRP	-1.03
RRIRSRPPRLPRPRPRPWYWPRP	-0.307
RRIRKRPPRLPRPRPRPHSVPRP	0.11
RRIRHRPPRLPRPRPRPVHVPRP	-0.16
RRIRQRPPRLPRPRPRPQGYPRP	-0.19
RRIRARPPRLPRPRPRPCNKPRP	-0.43
RRIRERPPRLPRPRPRPDFCPRP	-0.196
RRIRLRPPRLPRPRPRPAELPRP	-0.172
RRIRYRPPRLPRPRPRPFSGPRP	0.0211
RRIRERPPRLPRPRPRPTQCPRP	-0.133
RRIRKRPPRLPRPRPRPPRWPRP	1.07
RRIRWRPPRLPRPRPRPCAYPRP	-0.129

Sequence	shrunken log2 fold change
RRIRMRPPRLPRPRPRPFPAPRP	0.426
RRIRTRPPRLPRPRPRPDFDPRP	-0.375
RRIRERPPRLPRPRPRPHEFPRP	-0.0591
RRIRPRPPRLPRPRPRPRPRPRP	0.744
RRIRERPPRLPRPRPRPQCWPRP	-0.0051
RRIRQRPPRLPRPRPRPNRQPRP	0.0872
RRIRNRPPRLPRPRPRPAVMPRP	-0.0474
RRIRARPPRLPRPRPRPHSHPRP	0.144
RRIRKRPPRLPRPRPRPLYFPRP	-0.271
RRIRYRPPRLPRPRPRPAHLPRP	-0.0584
RRIRWRPPRLPRPRPRPESAPRP	1.15
RRIRWRPPRLPRPRPRPPVKPRP	0.644
RRIRFRPPRLPRPRPRPFNTPRP	-0.688
RRIRTRPPRLPRPRPRPCIDPRP	-0.519
RRIRQRPPRLPRPRPRPEPLPRP	0.287
RRIRYRPPRLPRPRPRPCRHPRP	-0.394
RRIRTRPPRLPRPRPRPVQTPRP	0.216
RRIRYRPPRLPRPRPRPARAPRP	0.524
RRIRQRPPRLPRPRPRPSKHPRP	-0.641
RRIRFRPPRLPRPRPRPYHFPRP	-0.194
RRIRNRPPRLPRPRPRPKCYPRP	-0.0478
RRIRGRPPRLPRPRPRPCQYPRP	0.0685
RRIRQRPPRLPRPRPRPRSRPRP	0.0402
RRIRDRPPRLPRPRPRPCDKPRP	-0.206
RRIRQRPPRLPRPRPRPWQYPRP	-0.366

Sequence	shrunken log2 fold change
RRIRQRPPRLPRPRPRPKGEPRP	-0.031
RRIRPRPPRLPRPRPRPCIYPRP	-0.536
RRIRLRPPRLPRPRPRPVKVPRP	-0.0103
RRIRVRPPRLPRPRPRPWEFPRP	-0.102
RRIRARPPRLPRPRPRPEASPRP	1.19
RRIRTRPPRLPRPRPRPERWPRP	0.354
RRIRCRPPRLPRPRPRPAAHPRP	0.37
RRIRYRPPRLPRPRPRPCCCPRP	-0.211
RRIRPRPPRLPRPRPRPGPRPRP	0.677
RRIRDRPPRLPRPRPRPWMGPRP	-0.368
RRIRWRPPRLPRPRPRPLQGPRP	-0.21
RRIRCRPPRLPRPRPRPECHPRP	0.0568
RRIRWRPPRLPRPRPRPWAHPRP	0.0966
RRIRPRPPRLPRPRPRPTQKPRP	0.0334
RRIRIRPPRLPRPRPRPSWEPRP	-0.621
RRIRKRPPRLPRPRPRPKPMPRP	0.515
RRIRIRPPRLPRPRPRPHTHPRP	-0.92
RRIRARPPRLPRPRPRPCLLPRP	0.0509
RRIRRRPPRLPRPRPRPFMVPRP	-0.242
RRIRSRPPRLPRPRPRPPYKPRP	-0.465
RRIRRRPPRLPRPRPRPIELPRP	-0.192
RRIRPRPPRLPRPRPRPEKIPRP	-0.0804
RRIRQRPPRLPRPRPRPVDCPRP	-0.013
RRIRMRPPRLPRPRPRPATRPRP	1.58
RRIRYRPPRLPRPRPRPLTNPRP	-0.206

Sequence	shrunken log2 fold change
RRIRHRPPRLPRPRPRPIPWPRP	0.0217
RRIRRRPPRLPRPRPRPFSIPRP	-0.254
RRIRKRPPRLPRPRPRPEIHPRP	0.27
RRIRGRPPRLPRPRPRPLFPPRP	0.406
RRIRGRPPRLPRPRPRPQMQPRP	1.04
RRIRGRPPRLPRPRPRPHCTPRP	-0.0815
RRIRCRPPRLPRPRPRPWREPRP	0.13
RRIRSRPPRLPRPRPRPEFEPRP	0.731
RRIRQRPPRLPRPRPRPWYRPRP	-0.49
RRIRIRPPRLPRPRPRPKKFPRP	-0.666
RRIRCRPPRLPRPRPRPAEDPRP	0.213
RRIRPRPPRLPRPRPRPLTPPRP	0.222
RRIRHRPPRLPRPRPRPQENPRP	-0.245
RRIRHRPPRLPRPRPRPSLTPRP	0.0616
RRIRTRPPRLPRPRPRPSIYPRP	-0.513
RRIRMRPPRLPRPRPRPDFRPRP	0.146
RRIRYRPPRLPRPRPRPMTAPRP	-0.0394
RRIRYRPPRLPRPRPRPYMAPRP	-1.71
RRIRNRPPRLPRPRPRPMEHPRP	0.0201
RRIRNRPPRLPRPRPRPPYRPRP	-0.11
RRIRHRPPRLPRPRPRPRHNPRP	-0.4
RRIRERPPRLPRPRPRPKFKPRP	-0.355
RRIRWRPPRLPRPRPRPTLCPRP	0.127
RRIRVRPPRLPRPRPRPMVPPRP	-0.189
RRIRCRPPRLPRPRPRPTHAPRP	0.975
